Biological target: T1, recombinant murine ACE2 (angiotensin-converting enzyme 2), extracellular domain (murine), Q8R0I0
T1 chain: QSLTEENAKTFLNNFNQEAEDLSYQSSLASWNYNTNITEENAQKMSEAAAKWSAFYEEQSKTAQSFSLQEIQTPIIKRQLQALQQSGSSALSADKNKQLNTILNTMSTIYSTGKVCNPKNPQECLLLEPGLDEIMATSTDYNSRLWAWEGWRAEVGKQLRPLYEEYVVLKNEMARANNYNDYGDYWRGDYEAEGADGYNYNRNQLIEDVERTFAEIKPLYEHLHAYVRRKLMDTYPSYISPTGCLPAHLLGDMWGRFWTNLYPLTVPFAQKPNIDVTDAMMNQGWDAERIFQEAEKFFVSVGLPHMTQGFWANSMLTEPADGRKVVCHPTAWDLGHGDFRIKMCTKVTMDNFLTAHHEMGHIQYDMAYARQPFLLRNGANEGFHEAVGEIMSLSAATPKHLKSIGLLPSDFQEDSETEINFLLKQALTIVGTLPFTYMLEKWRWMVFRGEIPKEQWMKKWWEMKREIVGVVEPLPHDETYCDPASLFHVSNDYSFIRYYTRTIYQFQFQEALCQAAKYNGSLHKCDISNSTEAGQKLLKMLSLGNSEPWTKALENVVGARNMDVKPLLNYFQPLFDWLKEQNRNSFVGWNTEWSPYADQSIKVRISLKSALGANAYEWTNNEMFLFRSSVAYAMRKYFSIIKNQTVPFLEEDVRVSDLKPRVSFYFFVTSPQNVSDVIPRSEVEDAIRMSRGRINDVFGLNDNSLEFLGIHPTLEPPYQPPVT
Experiment: native gel or EMSA; native PAGE, 2 ug protein on a precast native 3-12% gradient gel, Bis/Tris-Tricine buffers, 150 V for 80 min, Coomassie stain; single band at approximately 170 kDa; monomer to dimer
Conditions: remark: other sources report otherwise

stoichiometry N: 2
B1: recombinant murine ACE2 (angiotensin-converting enzyme 2), extracellular domain, Q8R0I0 18-740 (enzyme)
chain: T1 chain

Source: publication PMC3299299, “Recombinant Expression and Characterization of Human and Murine ACE2: Species-Specific Activation of the Alternative Renin-Angiotensin-System” (International Journal of Hypertension, 2012)
